Substitutions are numbered along the chain they refer to.

In general, EC50 refers to the concentration at which the effect is half-maximal.

B1: hu305-4F-2m-AF (antibody, V domains shown)
VH: QVQLQESGPGLVKPSQTLSLTCTVSGFSLAVYGVHWVRQPPGKGLEWLGVIWRGGTTDYNPSLKSRLTFSKDSSKSQVSLKLSSVTAADTAVYYCAKNRVTTVVAPNFYAMDYWGQGTLVTVSS
VL: DIVMTQSPDSLAVSLGERVTINCKSSQSLLYSGNQKNYLAWYQQKPGQSPKLLIYWASTRKSGVPDRFSGSGSGTDFTLTISSLQAEDVAAYYCQQYYTYPLTFGQGTRLEIK
B2: hu305-4F-2l-AF (antibody, V domains shown)
VH: B1 VH
VL: B1 VL with I21M
notes: also called hu305-4F-21-AF; hu305-4F-21
B3: Ch305-AF (antibody, V domains shown)
VH: QVQMKQSGPSLVQPSQSLSITCTVSGFSLTSYGVHWVRQSPGKGLEWLGVIWRGGTTDYNAAFMSRLSFTKDSSKSQVFFKLNSLQADDTAIYYCAKNRVTTVVAPNFYAMDYWGQGTSVTVSS
VL: DIVMTQSPSSLAVSVGEKVTMSCKSSQSLLYSGNQKNYLAWYQQKPGQSPKLLIYWASTRKSGVPDRLTGSGSGTDFTLTISSVKAEDLAAYYCQQYYTYPLTFGAGTRLEIK
notes: human IgG1/kappa; also called afucosylated Ch305
B4: hu305-5W-3a-AF (antibody, V domains shown)
VH: B1 VH with Q5K, E6Q, Q16E
VL: B1 VL with V19A, S49P, Q85K, A91V
notes: also called afucosylated hu305-5W-3a
B5: hu305-5P-3a-AF (antibody, V domains shown)
VH: B1 VH with Q5K, E6Q, Q16E, A30T, V31S, L67V, S76N
VL: B1 VL with V19A, S49P, Q85K, A91V

For the first experiment, the target named is T1, human CCR8 (human, UniProt P51685 1-355).
T1 construct: Full length; also called huCCR8; C-C motif chemokine receptor 8
T1 sequence (P51685 whole entry): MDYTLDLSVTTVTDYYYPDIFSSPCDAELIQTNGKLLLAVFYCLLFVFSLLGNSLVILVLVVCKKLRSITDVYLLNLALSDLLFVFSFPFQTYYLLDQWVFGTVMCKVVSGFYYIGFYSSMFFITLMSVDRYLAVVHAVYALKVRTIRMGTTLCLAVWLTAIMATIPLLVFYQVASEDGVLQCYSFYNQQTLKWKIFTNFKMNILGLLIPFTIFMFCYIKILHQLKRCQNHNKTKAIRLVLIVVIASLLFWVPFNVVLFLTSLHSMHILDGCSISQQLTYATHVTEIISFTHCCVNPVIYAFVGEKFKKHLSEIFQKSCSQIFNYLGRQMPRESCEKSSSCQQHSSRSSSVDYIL
The experiment can be described thus: flow cytometry, Jurkat/huCCR8 cells, Test1. Here is the method:
(§1) To evaluate the binding activities of anti-CCR8 antibodies to bind native CCR8 on live cells, Jurkat cells (ATCC TIB-15) were engineered to over-express human CCR8. Live Jurkat/huCCR8 cells were seeded in 96-well plate, and were incubated with a series of dilutions of anti-CCR8 antibodies. Alexa Fluor® 647 anti-Human IgG Fc Antibody (Biolegend cat: 410714) was used as a secondary antibody to detect antibody binding to CCR8 expressed on the cell surface. EC50 values for dose-dependent binding to human native CCR8 were determined by fitting the dose-response data to the four-parameter logistic model with GraphPad Prism.
(In general: In flow cytometry, cells or beads pass a laser one at a time.)
As for B1, the EC50 was 5.83 nM and the Emax amounted to 22900 MFI.

Molecule B2 returned an EC50 of 6.01 nM and an Emax of 23500 MFI.

In turn, B3 returned an EC50 of 3.88 nM and an Emax of 25200 MFI.

Another experiment has as its target T1, human CCR8. The experiment can be described thus: cell-based or functional assay.
With B4, the “IC50(nM), blocking activity” value stood at 1.82 nM and the “Imax(%), blocking activity” value came to 87.3%.

Turning to B1, the “IC50(nM), blocking activity” value came to 13.1 nM and the “Imax(%), blocking activity” value turned out to be 75.6%.

For the molecule B5, the “IC50(nM), blocking activity” value was 10.5 nM and the “Imax(%), blocking activity” value is 77.1%.

Turning to B2, the “IC50(nM), blocking activity” value is 6.19 nM and the “Imax(%), blocking activity” value stood at 78%.

Consider B3, for which the “IC50(nM), blocking activity” value was found to be 1.84 nM and the “Imax(%), blocking activity” value is 87.8%.

The next experiment deals with T1, human CCR8. Nature of the experiment: flow cytometry, stimulated human primary Treg cells (high CCR8). Here is the method: Treg binding of the humanized antibodies was measured on Treg cells from human PBMC. Briefly, CD25+ cells were isolated from human PBMC. The cells were stimulated with IL-2, TGFβ and anti-CD3/CD28 beads for high CCR8-expression level Treg cells. Next, Treg cells were seeded in 96-well plate and incubated with a series of dilutions of anti-CCR8 antibodies. Goat anti-human IgG was used as secondary antibody to detect antibody binding to the cell surface. EC50 values for dose-dependent binding to human CCR8 were determined by fitting the dose-response data to the four-parameter logistic model with GraphPad Prism. As shown in FIG. 6A and Table 12 the hu305-5W-3a had the highest binding affinity to CCR8 on Treg cells of the humanized antibodies. As noted in Table 12 and FIG. 6A below, the hu305-5W-3a antibody also had the lowest IC50 regarding reducing ligand-receptor interaction.
Take B4: the EC50 was determined as 47.6 nM and the Emax stood at 2030 RLU.

Consider B1, for which the EC50 worked out at 136 nM and the Emax was 1860 RLU.

Molecule B5 gave an EC50 of 35.2 nM and an Emax of 1720 RLU.

In turn, B2 returned an EC50 of 117 nM and an Emax of 1760 RLU.

As to B3, the EC50 is 90.7 nM and the Emax is 1750 RLU.

The target in the next experiment is T1, human CCR8. Nature of the experiment: flow cytometry, Jurkat/huCCR8 cells, Test2. As for the experimental part: as §1
With B4, the EC50 came to 2.98 nM and the Emax was found to be 16700 MFI.

As for B5, a half-maximal response (EC50) required 2.99 nM and the Emax is 17500 MFI.

B3 registered an EC50 of 4.75 nM and an Emax of 16600 MFI.

A further experiment deals with T2, Cynomolgus Monkey CCR8 (cynomolgus monkey, UniProt O97665 1-356 (rhesus entry)).
T2 construct: also called cyno CCR8; cynoCCR8
T2 sequence (O97665 other isoform, or with tags, fused parts or gaps): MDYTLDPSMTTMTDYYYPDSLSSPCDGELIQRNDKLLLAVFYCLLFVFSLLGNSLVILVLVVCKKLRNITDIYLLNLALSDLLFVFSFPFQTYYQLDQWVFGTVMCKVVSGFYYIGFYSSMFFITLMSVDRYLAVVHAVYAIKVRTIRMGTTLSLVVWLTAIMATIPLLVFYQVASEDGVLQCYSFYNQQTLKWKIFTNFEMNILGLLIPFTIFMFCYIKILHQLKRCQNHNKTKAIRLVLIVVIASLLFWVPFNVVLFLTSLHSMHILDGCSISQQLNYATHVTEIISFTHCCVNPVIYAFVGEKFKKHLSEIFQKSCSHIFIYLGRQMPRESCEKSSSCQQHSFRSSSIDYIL
Nature of the experiment: flow cytometry, 293T-cynoCCR8 cells. As for the experimental part: Goat anti-human IgG was used as secondary antibody to detect antibody binding to the cell surface. EC50 values for dose-dependent binding to cyno CCR8 were determined by fitting the dose-response data to the four-parameter logistic model with GraphPad Prism.
B4 returned an EC50 of 12.5 nM and an Emax of 12400 RLU.

As for B1, the EC50 worked out at 16.6 nM and the Emax came out at 12300 RLU.

B5 showed an EC50 of 9.83 nM and an Emax of 12600 RLU.

With B2, the EC50 was determined as 16.7 nM and the Emax amounted to 12500 RLU.

In the case of B3, a half-maximal response (EC50) required 14.8 nM and the Emax is 11900 RLU.

For a further experiment, the target named is T1, human CCR8. Nature of the experiment: cell-based or functional assay. The source holds these as a separate data set.
As to B4, the “EC50 (nM), NK cell mediated cytotoxicity (ADCC) on CCR8-expressing Treg” value (“EC50 (nM), NK cell mediated cytotoxicity” below) turned out to be 0.059 nM and the “Emax (%), NK cell mediated cytotoxicity (ADCC) on CCR8-expressing Treg” value (from here on “Emax (%), NK cell mediated cytotoxicity”) amounted to 75.5%.

Turning to B1, the “EC50 (nM), NK cell mediated cytotoxicity” value was determined as 0.585 nM and the “Emax (%), NK cell mediated cytotoxicity” value was determined as 70.9%.

On to B5, for which the “EC50 (nM), NK cell mediated cytotoxicity” value turned out to be 0.077 nM and the “Emax (%), NK cell mediated cytotoxicity” value worked out at 73.7%.

Consider B2, for which the “EC50 (nM), NK cell mediated cytotoxicity” value turned out to be 0.396 nM and the “Emax (%), NK cell mediated cytotoxicity” value was found to be 72.3%.

For the molecule B3, the “EC50 (nM), NK cell mediated cytotoxicity” value came out at 0.064 nM and the “Emax (%), NK cell mediated cytotoxicity” value was 75.1%.

These data come from US20250115671A1 (BEIGENE, published 2025).
